Here are results for ten variants from paper PMC7442819, “Taf14 recognizes a common motif in transcriptional machineries and facilitates their clustering by phase separation” (Nature Communications, 2020).

First the molecules themselves.
B1: Sth1EBM (Sth1_(1183–1240)) [Saccharomyces cerevisiae] / Taf14ET (Taf14_(174–244)) [Saccharomyces cerevisiae] (parent)
chain 1: EVKSSSVEIINGSESKKKKPKLTVKIKLNKTTVLENNDGKRAEEKPESKSPAKKTAAK
chain 2: KGSVDLEKLAFGLTKLNEDDLVGVVQMVTDNKTPEMNVTNNVEEGEFIIDLYSLPEGLLKSLWDYVKKNTE
B2: Ino80_(368–390) [Saccharomyces cerevisiae] / Taf14ET (Taf14_(174–244)) [Saccharomyces cerevisiae] (parent)
chain 1: DSKLNIKITLKQYHVKRLKKLIN
chain 2: B1 chain 2
B3: Snf5_(771–800) [Saccharomyces cerevisiae] / Taf14ET (Taf14_(174–244)) [Saccharomyces cerevisiae] (parent)
chain 1: SPPCYIIDHIPGHSLLLSIKLPGKVNTKEE
chain 2: B1 chain 2

In the first test the parent is B1. The test can be described thus: ITC. Particulars: with Taf14ET (Taf14_(174–244)) [Saccharomyces cerevisiae].
Regarding chain 1 EVKSSSVEIINGSESKKKKPKLTVKIKANKTTVLENNDGKRAEEKPESKSPAKKTAAK [chain 1 L28A], the screen value was 5.27 kcal/mol.

Consider chain 1 EVKSSSVEIINGSESKKKKPKLTAKIKLNKTTVLENNDGKRAEEKPESKSPAKKTAAK [chain 1 V24A], for which the screen value was found to be 6.7 kcal/mol.

Regarding chain 1 EVKSSSVEIINGSESKKKKPKATVKIKLNKTTVLENNDGKRAEEKPESKSPAKKTAAK [chain 1 L22A], the screen value was determined as 7.23 kcal/mol.

Staying with this test, now noted: with Sth1EBM (Sth1_(1183–1240)) [Saccharomyces cerevisiae].
Consider chain 2 KGSVDLEKLAFGLTKLNEDDLVGVVQMVTDNKTPEMNVTNNVEEGEAIIDLYSLPEGLLKSLWDYVKKNTE [chain 2 F47A], for which the screen value came to 8.16 kcal/mol.

Turning to chain 2 KGSVDLEKLAFGLTKLNEDDLVGVVQMVTDNKTPEMNVTNNVEEGERIIDLYSLPEGLLKSLWDYVKKNTE [chain 2 F47R], the screen value was 5.99 kcal/mol.

Turning to chain 2 KGSVDLEKLAFGLTKLNEDDLVGVVQMVTDNKTPEMNVTNNVEEGEFIRDLYSLPEGLLKSLWDYVKKNTE [chain 2 I49R], the screen value was found to be 1.21 kcal/mol.

The variants in a further test derive from B2. In words: ITC. Conditions: with Taf14ET (Taf14_(174–244)) [Saccharomyces cerevisiae].
For the variant chain 1 DSKLNAKITLKQYHVKRLKKLIN [chain 1 I6A], the screen value amounted to 4.41 kcal/mol.

Take chain 1 DSKLNIKITAKQYHVKRLKKLIN [chain 1 L10A]: the screen value was found to be 3.42 kcal/mol.

In another test the parent is B3. In words: ITC. Particulars: with Taf14ET (Taf14_(174–244)) [Saccharomyces cerevisiae].
On to chain 1 SPPCYIIDHIPGHSLLLSAKLPGKVNTKEE [chain 1 I19A], for which the screen value was 0.52 kcal/mol.

chain 1 SPPCYIIDHIPGHSLLASIKLPGKVNTKEE [chain 1 L17A]: the screen value worked out at 0.55 kcal/mol.
